# Experimental data published in patent publication US20160097044A1, “Antimicrobial Enzyme Fusions Reduce Resistance and Kill Intracellular Staphylococcus aureus” (The United States of America, as Represented by the …, priority 2014, published 2016).
# B1: L-K: LysK lytic domains inserted between lysostaphin's M23 endopeptidase domain and SH3b cell wall binding domain; SEQ ID NO:7, protein SEQ ID NO:8 (protein)
# chain: MAATHEHSAQWLNNYKKGYGYGPYPLGINGGMHYGVDFFMNIGTPVKAISSGKIVEAGWSNYGGGNQIGLIENDGVHRQWYMHLSKYNVKVGDYVKAGQIIGWSGSTGYSTAPHLHFQRMVNSFSNSTAQDPMPFLKSAGYGKAGGTVTPTPNTGLDAKTQAEINKRLDAYAKGTVDSPYRVKKATSYDPSFGVMEAGAIDADGYYHAQCQDLITDYVLWLTDNKVRTWGNAKDQIKQSYGTGFKIHENKPSTVPKKGWIAVFTSGSYEQWGHIGIVYDGGNTSTFTILEQNWNGYANKKPTKRVDNYYGLTHFIEIPVKAGTTVKKETAKKSASKTPAPKKKATLKVSKNHINYTMDKRGKKPEGMVIHNDAGRSSGQQYENSLANAGYARYANGIAHYYGSEGYVWEAIDAKNQIAWHTGDGTGANSGNFRFAGIEVCQSMSASDAQFLKNEQAVFQFTAEKFKEWGLTPNRKTVRLHMEFVPTACPHRSMVLHTGFNPVTQGRPSQAIMNKLKDYFIKQIKNYMDKGTSSSTVVKDGKTSSASLDTVTPTPNTGWKTNKYGTLYKSESASFTPNTDIITRTTGPFRSMPQSGVLKAGQTIHYDEVMKQDGHVWVGYTGNSGQRIYLPVRTWNKSTNTLGVLWGTIKLEHHHHHH
# modifications: Staphylococcus simulans & Phage K
# What was measured:
# [1] = tested on: S. aureus ALR; test: Minimum Inhibitory Concentration (MIC) assay; format: cell-based
# Description: (§1) The Minimum Inhibitory Concentrations (MIC) of each protein for multiple S. aureus strains was determined as previously described (Jones et al. 1985. In: Manual of Clinical Microbiology, Eds. Balows et al. American Society of Microbiology, Washington D.C., pp. 972-977) with the following modifications. Enzymes were serially diluted two fold across a 96 well plate, such that after dilution, 50 μl of the enzyme solution in 300 mM NaCl, 50 mM NaH2PO4, 30% glycerol pH 7.5, remained in each well. To each well was added 50 μl of TSB and 100 μl of S. aureus Newman in TSB (diluted to 5×10^6 cells/ml). The plates were incubated 20 h at 37° C. and read with a 96 well plate reader. MIC determination values were reported as the median of ≧4 replicates (Table 1).
# [2] = tested on: S. aureus Newbould 305; test: Minimum Inhibitory Concentration (MIC) assay; format: cell-based; details: Mastitis isolate S. aureus Newbould 305
# Description: as §1
# [3] = tested on: S. aureus Newman; test: Minimum Inhibitory Concentration (MIC) assay; format: cell-based
# Description: as §1
# [4] = tested on: N315 (NRS 70); test: Minimum Inhibitory Concentration (MIC) assay; format: cell-based, S. aureus
# Description: as §1
# [5] = tested on: NRS 192; test: Minimum Inhibitory Concentration (MIC) assay; format: cell-based, S. aureus
# Description: as §1
# [6] = tested on: NRS 193; test: Minimum Inhibitory Concentration (MIC) assay; format: cell-based, S. aureus
# Description: as §1
# [7] = tested on: NRS 194; test: Minimum Inhibitory Concentration (MIC) assay; format: cell-based, S. aureus
# Description: as §1
# [8] = tested on: NRS 209; test: Minimum Inhibitory Concentration (MIC) assay; format: cell-based, S. aureus
# Description: as §1
# [9] = tested on: NRS 271; test: Minimum Inhibitory Concentration (MIC) assay; format: cell-based, S. aureus
# Description: as §1
# [10] = tested on: Sanger 252 (NRS 71); test: Minimum Inhibitory Concentration (MIC) assay; format: cell-based, S. aureus
# Description: as §1
# [11] = tested on: USA 100 (NRS 382); test: Minimum Inhibitory Concentration (MIC) assay; format: cell-based, S. aureus
# Description: as §1
# [12] = tested on: USA 200 (NRS 383); test: Minimum Inhibitory Concentration (MIC) assay; format: cell-based, S. aureus
# Description: as §1
# [13] = tested on: USA 300 (NRS 384); test: Minimum Inhibitory Concentration (MIC) assay; format: cell-based, S. aureus
# Description: as §1
# [14] = tested on: USA 400 (NRS 123); test: Minimum Inhibitory Concentration (MIC) assay; format: cell-based, S. aureus
# Description: as §1
# [15] = tested on: USA 500 (NRS 385); test: Minimum Inhibitory Concentration (MIC) assay; format: cell-based, S. aureus
# Description: as §1
# [16] = tested on: USA 600 (NRS 22); test: Minimum Inhibitory Concentration (MIC) assay; format: cell-based, S. aureus
# Description: as §1
# [17] = tested on: S. hyicus MP01; test: Minimum Inhibitory Concentration (MIC) assay; format: cell-based, Staphylococcus hyicus; details: Mastitis isolate S. hyicus MP01
# [18] = tested on: S. warneri MP06; test: Minimum Inhibitory Concentration (MIC) assay; format: cell-based, Staphylococcus warneri; details: Mastitis isolate S. warneri MP06
# [19] = tested on: S. xylosus MP05; test: Minimum Inhibitory Concentration (MIC) assay; format: cell-based, Staphylococcus xylosus; details: Mastitis isolate S. xylosus MP05
# [20] = tested on: S. aureus strain Newman; format: cell-based; details: tenth round compared to first exposure
# Description: For the MIC repeated exposure method, MIC determinations were performed with S. aureus strain Newman. 100 μl of S. aureus strain Newman culture that survived at ½ the MIC (the first well with visible growth) for each round was inoculated into 5 ml TSB and cultivated to mid-log phase growth. This culture was used as the inoculum for the next round of MIC exposure (overnight growth), and the cycle was repeated for 10 rounds.
# Development of resistance to the triple-acting fusion enzymes was tested on S. aureus strain Newman and compared to both parental enzymes applied individually or simultaneously. […] Survivors of the ten round exposure to peptidoglycan hydrolase were passaged five times in medium with no peptidoglycan hydrolase added. […] We compared our triple-acting fusions to small molecule antibiotics in similar assays.
# [21] = tested on: S. aureus SA113 biofilms; test: Static biofilm reduction model; format: cell-based; details: 1 h treatment, compared to buffer treated biofilms
# Description: S. aureus SA113 biofilms were treated for 1 h with 100 μl of each enzyme individually or as equimolar mixtures of LysK and lysostaphin (white bars) in 300 mM NaCl, 50 mM NaH2PO4, 30% glycerol. Constructs are named as in FIG. 1a. Results are reported as the percentage reduction in biofilm compared to buffer treated biofilms. Data presented represents 4 replicates. Values represent means±[…]. Asterisks indicate significant differences (single factor ANOVA with t-test post hoc analysis Sidák correction) as compared to LysK (K) at that concentration. Adjusted alpha p<0.026. Peptidoglycan hydrolase constructs: lysostaphin (L), LysK (K), triple fusion K-L, and triple fusion (L-K), as named in FIG. 1a.
# In the static biofilm reduction model, biofilms were produced as previously described (Gross et al. 2001. Infect. Immun. 69:3423-3426) with the following modifications. S. aureus strains were grown overnight in 5 ml TSB supplemented with 0.25% D(+)-glucose without shaking at 37° C. The culture was diluted 1/200 in fresh culture medium, and 200 μl was added to each well of a 96 well microtiter plate and incubated without shaking for 24 h at 37° C. Biofilms in the wells were washed twice with 200 μl SLB, treated with […] peptidoglycan hydrolase (Lysostaphin, LysK and the triple fusion proteins K-L and L-K) in SLB at concentrations indicated (FIG. 4) for 1 h at room temperature, and washed twice with 100 μl SLB. Adherent bacteria were fixed with 200 μl 95% ethanol-5% glacial acetic acid for 20 min, washed once with water, and stained with 100 μl 0.4% crystal violet for 15 min at room temperature. Excess stain was removed with 3 water washes. Bound stain was resolubilized in 33% acetic acid, and 20 μl was transferred to a 96 well plate containing 180 μl water. The OD590nm was determined in a Spectra Max plate reader. Percent reduction represents the difference in absorbance between biofilms exposed to buffer only and experimental wells that were exposed to the peptidoglycan hydrolases.
# Static biofilms were created with S. aureus strain SA113 in 96 well dishes and treated for one hour with 100 μl of the indicated concentrations of each enzyme individually or as an equimolar mixture of LysK and lysostaphin.
molecule,measurement,setting,value
B1,MIC for S. aureus ALR (comparison for post-treatment isolates),"[1]; N=8, value ± spread",9.4 ± 6.1 µg/mL
same,Minimum Inhibitory Conc. (median μg/ml),[1]; S. aureus ALR,4.4 µg/mL
same,Minimum Inhibitory Conc. (median μg/ml),[2],12 µg/mL
same,Minimum Inhibitory Conc. (median μg/ml),[3]; S. aureus Newman,7.8 µg/mL
same,First exposure MIC,"[3]; first exposure of the resistance development experiment, FIG. 1b",7.8 µg/mL
same,First exposure MIC,"[3]; first exposure, molar concentration in brackets",0.107 µM
same,Minimum Inhibitory Conc. (median μg/ml),[4],16 µg/mL
same,Minimum Inhibitory Conc. (median μg/ml),[5],16 µg/mL
same,Minimum Inhibitory Conc. (median μg/ml),[6],12 µg/mL
same,Minimum Inhibitory Conc. (median μg/ml),[7],12 µg/mL
same,Minimum Inhibitory Conc. (median μg/ml),[8],12 µg/mL
same,Minimum Inhibitory Conc. (median μg/ml),[9],9.8 µg/mL
same,Minimum Inhibitory Conc. (median μg/ml),[10],6.8 µg/mL
same,Minimum Inhibitory Conc. (median μg/ml),[11],20 µg/mL
same,Minimum Inhibitory Conc. (median μg/ml),[12],5.9 µg/mL
same,Minimum Inhibitory Conc. (median μg/ml),[13],20 µg/mL
same,Minimum Inhibitory Conc. (median μg/ml),[14],16 µg/mL
same,Minimum Inhibitory Conc. (median μg/ml),[15],12 µg/mL
same,Minimum Inhibitory Conc. (median μg/ml),[16],6.8 µg/mL
same,Minimum Inhibitory Conc. (median μg/ml),[17],0.37 µg/mL
same,Minimum Inhibitory Conc. (median μg/ml),[18],1.5 µg/mL
same,Minimum Inhibitory Conc. (median μg/ml),[19],4.0 µg/mL
same,increase in MIC after 10 rounds of sub-lethal exposure,[20],2 fold
same,static biofilm reduction (in words),[21],effectively reduced staphylococcal biofilms
